Measured values published in patent US20040147432A1 (MERCK, published 2004).
Where two headings read alike, the source gives them in different places. Bridges are numbered along the chain shown (N, C = ends).

Assays:
[1] = biological target: T1, human MCH-1R (human, UniProt Q99705 1-353); experiment: cell-based or functional assay
[2] = biological target: T1, human MCH-1R; experiment: cell-based or functional assay; remark: listed apart in the source
[3] = biological target: T1, human MCH-1R; experiment: SPA competition with [125I]-human MCH (Phe13, Tyr19) on receptor membranes
Protocol: (§1) For the SPA-based assay, WGA-PVT beads (NEN Life Sciences Products) were resuspended in Dulbecco's PBS with calcium and magnesium (500 mg beads in 4 ml PBS). […] The suspension was mixed gently for 20 minutes, 12.3 ml of assay buffer and protease inhibitors were added (final concentration given): 2 μg/ml leupeptin, 10 μM phosphoramidon, 40 μg/ml bacitracin, 5 μg/ml aprotinin, 0.1 mM Pefabloc.
(§2) Coated beads were kept on ice until use. […] Binding reactions were allowed to proceed at room temperature for 3 hours. Quantitation was performed by scintillation counting (TopCount device).

[4] = biological target: T2, human melanin concentrating hormone type 2 receptor (MCH-2R) (human, UniProt Q969V1 1-340); experiment: as above
T2 construct: also called MCH-R2
Protocol: as §1, §2

[5] = biological target: T1, human MCH-1R; experiment: as above; remark: listed apart in the source
[6] = biological target: T2, human melanin concentrating hormone …; experiment: as above; remark: listed apart in the source

T1 sequence (Q99705 whole entry, form in doubt): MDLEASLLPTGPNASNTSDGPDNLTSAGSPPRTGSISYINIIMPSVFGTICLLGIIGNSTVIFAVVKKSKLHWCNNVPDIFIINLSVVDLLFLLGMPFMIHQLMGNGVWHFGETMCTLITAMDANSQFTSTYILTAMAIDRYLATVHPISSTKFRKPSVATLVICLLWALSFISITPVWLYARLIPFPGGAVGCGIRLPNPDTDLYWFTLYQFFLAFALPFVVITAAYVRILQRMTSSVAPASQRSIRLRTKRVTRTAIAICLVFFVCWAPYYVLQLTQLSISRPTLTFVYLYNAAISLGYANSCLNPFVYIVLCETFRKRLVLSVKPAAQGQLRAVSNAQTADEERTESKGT
T2 sequence (Q969V1 whole entry, form in doubt): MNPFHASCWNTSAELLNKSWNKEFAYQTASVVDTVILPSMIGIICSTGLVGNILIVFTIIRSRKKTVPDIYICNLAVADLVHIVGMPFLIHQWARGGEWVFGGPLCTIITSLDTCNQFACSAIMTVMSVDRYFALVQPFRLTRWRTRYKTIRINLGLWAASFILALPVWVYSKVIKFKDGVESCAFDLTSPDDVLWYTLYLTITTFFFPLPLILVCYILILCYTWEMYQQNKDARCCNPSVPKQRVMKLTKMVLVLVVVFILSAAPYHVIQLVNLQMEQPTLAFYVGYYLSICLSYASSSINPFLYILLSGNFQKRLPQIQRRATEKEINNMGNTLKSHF

Q: For Ac-RCMLGRVYRPC-NH2 (disulfide 2-11 (inferred), positions numbered 6-16 as in hMCH) [truncated form of human MCH, SEQ. ID. NO. 2], which “Activation % at 10 µM (aequorin functional assay)” value [1] is on record?
A: 99%

Q: What about the “EC50 (aequorin functional assay)” value [1] of the same binder?
A: 20 nM

Q: And the “Activation % at 10 µM (aequorin functional assay)” value [2]?
A: 99%

Q: What about the “EC50 (aequorin functional assay)” value [2] of the same binder?
A: 20 nM

Q: What about the IC50 [3] of the same binder?
A: 0.5 nM

Q: And the IC50 [4]?
A: 2 nM

Q: What about the IC50 [5] of the same binder?
A: 1.4 nM

Q: And the IC50 [6]?
A: 2 nM
